Laboratory results from patent US20170198056A1 (MEDICINAL CHEMISTRY PHARMACEUTICALS, published 2017).
*: point of attachment. αGalNAc = CC(=O)N[C@@H]1[C@@H](O)[C@@H](O)[C@@H](CO)O[C@@H]1*

Assays:
[1] = target: T1, Compound 13: … (human); test: glycopeptide microarray, Cy3 anti-mouse IgG
T1 construct: also called glycopeptide in which Tn has been modified in the tandem unit peptide of MUC2
T1 peptide: {5‑oxohexanoyl}-PPTT(αGalNAc)T(αGalNAc)PSPPPTSTT(αGalNAc)T(αGalNAc)LPPT-NH2

[2] = target: T2, Compound 15: 5-oxohexanoyl-Ser-Ala-Ser-Thr-Gly-His-Ala-Thr(Tn)-Pro-Leu-Pro-Val-Thr-Asp-Thr-Ser-Cys-NH2 (human); test: glycopeptide microarray, Cy3 anti-mouse IgG
T2 construct: also called glycopeptide in which Tn has been modified in the tandem unit peptide of MUC4
T2 peptide: {5‑oxohexanoyl}-SASTGHAT(αGalNAc)PLPVTDTSC-NH2

B1: Monoclonal antibody SN-101 (antibody, V domains shown)
VH: EVNLEESGGGLVQPGGSMKLSCVASGFTFSNYWMNWVRQSPEKGLEWVAQIRLKSDNYATHYAESVKGRFTISRDDSKSSVYLQMNNLRAEDTGIYYCTGGVFDYWGQGTTLTVSS
VL: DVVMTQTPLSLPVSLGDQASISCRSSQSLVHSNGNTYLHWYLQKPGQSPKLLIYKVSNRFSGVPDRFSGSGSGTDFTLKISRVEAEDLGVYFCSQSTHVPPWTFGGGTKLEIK
notes: Mouse monoclonal antibody from a hybridoma; it was purified on Protein G and detected with anti-mouse IgG; The array assay used culture supernatant diluted 10-fold; also called antibody of hybridoma strain 3A9-4B1 (NITE BP-01845)
Q: Does B1 bind [1]?
A: Result: no binding

Q: Does B1 bind [2]?
A: Result: no binding
